Measurements published in the supplement of paper PMC10567573.

B1: ZNF232 (parent)
chain: FPKSEQVYLHFLSVVTEDGPEPKD
B2: SPRY1 (parent)
chain: WIHRPGCRCKNSNTVYCKLESCPS

Variants of: B1
Assay: protein stability index of a GFP-peptide fusion (GPS, HEK-293T) (PSI 1-6); higher = more stable
Conditions: c terminus: a fixed tail appended
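Also: lentivirally expressed fusions sorted by FACS into six bins by GFP to DsRed ratio, PSI derived from sequencing read proportions per bin multiplied by bin number.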

Protein stability index of substitutions, site by site:
P22: I 2 | D 3.31 | A 1.85 | F 1.67 | R 1.9 | L 2.63 | T 2 | S 1.81 | K 1.67 | Y 1.25 | E 1.94 | G 1.75 | C 1.34 | H 2.39 | N 2.37 | W 1.83 | Q 1.75
V15: S 2.47 | K 2.27 | W 1.47 | Y 2.43 | H 2.4 | T 2.1 | P 2.08 | R 3.32 | I 1.89 | N 2.36 | M 2.88
G19: C 1.95 | F 1.54 | D 2.06 | Y 1.33 | T 2.34 | S 2.27 | K 2.71 | V 1.5 | N 2.69 | L 1.93 | Q 2.49 | M 2.05 | E 2.43 | R 2.45 | P 2.21 | I 1.9 | H 2.32 | A 2.33 | W 1.47
P20: L 1.71 | T 2.72 | D 2.53 | H 2.28 | C 1.93 | M 2.11 | I 2.25 | R 2.15 | A 3.42 | F 1.44 | G 2.5 | K 2.47 | V 1.76
D18: H 2.46 | K 1.58 | R 1.47 | T 1.76 | G 2.32 | Y 1.24 | F 3.47 | L 2.61 | A 1.73 | M 1.01 | S 1.33 | N 1.71 | P 1.94 | V 1.23 | Q 1.77
T16: H 2.68 | P 3.37 | A 2.31 | V 1.81 | Q 1.87 | D 2.26 | I 2.19 | F 1.63 | C 2.47 | E 2.38 | Y 2.07 | S 2.31 | N 2.42 | K 2.77 | W 1.89 | L 1.85
E21: M 2.04 | T 2.06 | Q 1.71 | P 1.91 | H 2.02 | V 2.97 | F 3.2 | K 2.07 | D 2.02 | C 1.91 | I 2.33 | S 2.26 | A 2.71 | N 2.12 | R 1.79 | L 1.91 | W 1.7 | Y 1.68
E17: M 2.51 | Q 1.8 | N 1.66 | Y 2.15 | K 2 | W 4.03 | R 1.88 | I 1.77 | T 2.08 | P 1.99 | D 2.62 | F 2.38 | S 1.65 | A 3.57 | L 1.56
D24: H 1.35 | S 1.71 | Q 2.95 | L 2.94 | G 3.76 | P 2.16 | V 2.37 | Y 2.58 | E 2.12 | I 2.14 | F 1.99 | C 1.36 | A 1.8 | T 1.75 | N 1.82 | W 1.35 | M 1.56 | R 1.83
K23: I 2.06 | M 2.22 | G 1.83 | H 1.84 | S 1.91 | W 1.7 | N 1.69 | A 2.66 | T 1.69 | Y 1.39 | F 1.63 | E 2.13 | C 2.07 | V 2.14 | D 1.82

Variants of: B2
Assay: as above
Conditions: c terminus: a fixed tail appended

Protein stability index of substitutions, site by site:
K10: C 1.88 | Y 1.82 | S 2.26 | W 2.41 | R 2.21 | Q 2.81 | L 1.96 | T 3.11
C7: A 2.35 | F 2.89 | T 1.82 | M 2.14 | S 1.77 | R 3.4 | H 2.55 | K 1.49
N11: A 3.47 | Q 2.41 | P 2.27 | C 1.83 | L 2.51
C9: Q 2 | N 1.97 | V 3.41 | I 1.17 | K 1.84
C22: K 1.88 | G 2.29 | Q 1.98 | T 2.07 | Y 2.44 | I 1.84 | V 2.52
P5: F 1.79 | V 2.65 | M 2.15 | I 2.11 | R 3.01 | G 1.85
E20: D 2.26 | Y 2.61 | R 2.91 | C 2.41 | M 1.4 | F 2.37 | G 2.21 | T 2.33
S21: H 2 | W 2.75 | C 1.8 | R 2.17 | Q 2.14 | P 2.74 | L 1.7 | Y 2.04 | T 2.17 | A 2.13
Y16: P 2.56 | E 3.28 | C 2.69
L19: Q 2.59 | A 3 | T 2.44 | M 2.37 | K 2.46 | V 2 | I 1.76
T14: V 1.86 | M 1.97 | F 1.9 | I 2.6 | N 2.78
S12: A 3.15 | E 2.71 | Y 1.97 | I 2.4 | D 2.16 | R 2.03 | C 3.25 | G 3.79
G6: L 1.97 | W 2.69 | K 2.32 | I 3.08 | E 3.01 | C 2 | R 2.12 | Y 2.26
V15: Q 2.65 | L 2.34 | W 2.92 | D 3.14 | F 2.37 | P 3.11 | E 2.49 | S 2.35
R4: N 3.43 | E 3.48 | C 2.77 | F 2.72 | G 3.95
W1: N 4.04 | H 3.72 | R 3.79 | F 2.04 | E 3.75 | G 3.65 | L 3.54 | Q 3.23 | A 3.52 | I 3 | D 4.38 | V 3.03
K18: R 2.09 | C 2.72 | A 1.91 | L 1.8 | M 2.46 | H 2.1
P23: G 2.84 | C 2.43 | L 1.71 | D 3.04 | A 2.29 | E 2.03 | S 2.9 | Y 1.99 | K 2.15 | N 2.43 | V 1.47 | R 1.93
H3: G 2.76 | R 2.44 | M 2.52 | P 2.79 | A 2.75 | L 2.31 | T 2.71 | I 1.74 | C 1.48
N13: F 2.3 | H 1.91 | E 2.64 | A 1.92 | Y 2.73 | I 1.67 | P 2.36 | C 2.1
S24: M 2.37 | R 1.61 | G 2.1 | N 2.1 | L 2 | V 2.5 | Y 3.13
C17: K 2.42 | A 1.44 | L 1.58 | Q 1.71 | M 2.21 | D 1.99 | P 2.1
R8: W 2.21 | L 2.6 | Y 2.2 | A 3 | M 2.83 | T 2.26 | E 3.33 | F 2.08 | Q 3.29 | I 2.38
I2: L 2.34 | Q 2.82 | Y 2.23 | H 2.77 | F 1.61
